Assay results reported in patent US20200317768A1 (published 2020).
Where a chain is given by its changes, count along the chain named. Names and notes keep the numbering of the source.

T1: cynomolgus monkey FcγRIIb extracellular domain with C-terminal His-tag (cynomolgus monkey)
T1 construct: Expressed in FreeStyle 293 cells and purified; also called cyno FcγRIIb; cynoFcγRIIb; not shown: C-terminal His-tag
T1 chain: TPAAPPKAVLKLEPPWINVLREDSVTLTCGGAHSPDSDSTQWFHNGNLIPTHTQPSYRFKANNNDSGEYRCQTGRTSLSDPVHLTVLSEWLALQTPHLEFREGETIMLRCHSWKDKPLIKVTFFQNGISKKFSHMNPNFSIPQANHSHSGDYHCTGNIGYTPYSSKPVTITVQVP

T2: cynomolgus monkey FcγRIIIaS extracellular domain with C-terminal His-tag (cynomolgus monkey, UniProt Q8SPW2 21-206 at identity 1.00))
T2 construct: Expressed in FreeStyle 293 cells and purified; also called cyno FcγRIIIaS; cynoFcγRIIIaS; not shown: C-terminal His-tag
T2 chain: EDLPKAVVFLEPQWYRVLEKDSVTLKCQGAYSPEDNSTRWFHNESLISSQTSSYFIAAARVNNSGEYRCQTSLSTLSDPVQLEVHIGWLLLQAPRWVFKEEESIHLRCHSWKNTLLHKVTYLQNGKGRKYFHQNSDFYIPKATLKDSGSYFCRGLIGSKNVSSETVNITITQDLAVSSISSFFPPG

T3: cynomolgus monkey FcγRIIa2 extracellular domain, His-tagged (cynomolgus monkey)
T3 construct: also called cyno FcgRIIa2; cynoFcγRIIa2; not shown: His-tag added to the C-terminus
T3 chain: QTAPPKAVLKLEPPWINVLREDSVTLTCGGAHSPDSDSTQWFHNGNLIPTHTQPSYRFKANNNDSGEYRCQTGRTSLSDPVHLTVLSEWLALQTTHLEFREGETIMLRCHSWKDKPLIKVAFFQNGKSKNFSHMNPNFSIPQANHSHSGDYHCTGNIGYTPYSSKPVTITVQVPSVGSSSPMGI

T4: cynomolgus monkey FcγRIIa3 extracellular domain, His-tagged (cynomolgus monkey)
T4 construct: also called cyno FcgRIIa3; cynoFcγRIIa3; not shown: His-tag added to the C-terminus
T4 chain: T3 chain with K127I, N130K, H133P, Q142R

T5: cynomolgus monkey FcγRIIb extracellular domain, His-tagged (cynomolgus monkey)
T5 construct: also called cyno FcgRIIb; cynoFcγRIIb; not shown: His-tag added to the C-terminus
T5 chain: T1 chain

T6: human FcγRIIaH extracellular domain, His-tagged (human, UniProt P12318 34-217)
T6 construct: also called human FcgRIIaH; FcγRIIa (type H); not shown: His-tag added to the C-terminus
T6 sequence: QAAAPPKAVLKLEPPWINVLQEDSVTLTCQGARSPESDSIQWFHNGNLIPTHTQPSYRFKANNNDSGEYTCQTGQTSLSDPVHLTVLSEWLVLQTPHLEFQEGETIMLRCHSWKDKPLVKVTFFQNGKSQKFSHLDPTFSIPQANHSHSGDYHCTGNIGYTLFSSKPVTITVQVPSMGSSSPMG

T7: human FcγRIIb extracellular domain, His-tagged (human, UniProt P31994 43-217)
T7 construct: also called human FcgRIIb; not shown: His-tag added to the C-terminus
T7 sequence: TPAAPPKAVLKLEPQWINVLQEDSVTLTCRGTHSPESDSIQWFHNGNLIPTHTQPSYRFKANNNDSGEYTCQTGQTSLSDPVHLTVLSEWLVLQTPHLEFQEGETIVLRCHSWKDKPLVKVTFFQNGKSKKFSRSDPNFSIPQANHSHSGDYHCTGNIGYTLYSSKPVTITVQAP

B1: MS_M103205H795-SG1/M103202L889-SK1 (antibody, human IgG1, kappa)
heavy: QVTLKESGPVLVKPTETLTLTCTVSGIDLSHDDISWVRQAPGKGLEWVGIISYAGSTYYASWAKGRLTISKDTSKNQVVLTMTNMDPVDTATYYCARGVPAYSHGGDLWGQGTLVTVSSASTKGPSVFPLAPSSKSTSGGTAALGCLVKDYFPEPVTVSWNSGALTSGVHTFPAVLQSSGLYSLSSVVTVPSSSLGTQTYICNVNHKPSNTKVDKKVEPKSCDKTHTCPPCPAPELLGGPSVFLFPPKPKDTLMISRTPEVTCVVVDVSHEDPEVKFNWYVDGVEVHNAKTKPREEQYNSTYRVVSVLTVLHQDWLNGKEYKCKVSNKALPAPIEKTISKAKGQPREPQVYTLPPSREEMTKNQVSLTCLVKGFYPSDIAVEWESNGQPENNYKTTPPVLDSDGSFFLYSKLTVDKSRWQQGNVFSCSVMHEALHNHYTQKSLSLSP
light: DIVMTQSPATLSLSPGERATLSCTSSQSVYHANWLSWFQQKPGQPPKLLIYWASTLAYGVPSRFSGSGSGTDFTLTISSLQPEDAATYYCAGGYGGGRYAFGQGTKVEIKRTVAAPSVFIFPPSDEQLKSGTASVVCLLNNFYPREAKVQWKVDNALQSGNSQESVTEQDSKDSTYSLSSTLTLSKADYEKHKVYACEVTHQGLSSPVTKSFNRGEC
notes: Anti-latent myostatin IgG; also called MS1032LO06-SG1
B2: M103205H795-MY052 / M103202L889-SK1 (antibody, human IgG1, kappa)
heavy: QVTLKESGPVLVKPTETLTLTCTVSGIDLSHDDISWVRQAPGKGLEWVGIISYAGSTYYASWAKGRLTISKDTSKNQVVLTMTNMDPVDTATYYCARGVPAYSHGGDLWGQGTLVTVSSASTKGPSVFPLAPSSKSTSGGTAALGCLVKDYFPEPVTVSWNSGALTSGVHTFPAVLQSSGLYSLSSVVTVPSSSLGTQTYICNVNHKPSNTKVDKKVEPKSCDKTHTCPPCPAPELLNGPSVFLFPPKPKDTLMISRTPEVTCVVVDVSEEDPEVKFNWYVDGVEVHNAKTKPREEQYNSTYRVVSVLTVLHQDWLNGKEYKCKVSNKALPAPIEKTISKAKGQPREPQVYTLPPSREEMTKNQVSLTCLVKGFYPSDIAVEWESNGQPENNYKTTPMVLDSDGSFFLYSKLTVDKSRWQQGNVFSCSVMHEALHNHYTQKSLSLSP
light: B1 light
notes: Fc variant of M103205H795-SG1, expressed with M103202L889-SK1 as light chain; parent of the position 396 variants
B3: M103205H795-MY168 / M103202L889-SK1 (antibody, human IgG1, kappa)
heavy: B2 heavy with M398A
light: B1 light
notes: Position 396 variant derived from MY052, expressed with M103202L889-SK1 as light chain
B4: M103205H795-MY169 / M103202L889-SK1 (antibody, human IgG1, kappa)
heavy: B2 heavy with M398D
light: B1 light
notes: as for B3
B5: M103205H795-MY170 / M103202L889-SK1 (antibody, human IgG1, kappa)
heavy: B2 heavy with M398E
light: B1 light
notes: as for B3
B6: M103205H795-MY171 / M103202L889-SK1 (antibody, human IgG1, kappa)
heavy: B2 heavy with M398F
light: B1 light
notes: as for B3
B7: MS1032LO06-SG1 (M103205H795-SG1/M103202L889-SK1) (antibody, human IgG1, kappa)
heavy: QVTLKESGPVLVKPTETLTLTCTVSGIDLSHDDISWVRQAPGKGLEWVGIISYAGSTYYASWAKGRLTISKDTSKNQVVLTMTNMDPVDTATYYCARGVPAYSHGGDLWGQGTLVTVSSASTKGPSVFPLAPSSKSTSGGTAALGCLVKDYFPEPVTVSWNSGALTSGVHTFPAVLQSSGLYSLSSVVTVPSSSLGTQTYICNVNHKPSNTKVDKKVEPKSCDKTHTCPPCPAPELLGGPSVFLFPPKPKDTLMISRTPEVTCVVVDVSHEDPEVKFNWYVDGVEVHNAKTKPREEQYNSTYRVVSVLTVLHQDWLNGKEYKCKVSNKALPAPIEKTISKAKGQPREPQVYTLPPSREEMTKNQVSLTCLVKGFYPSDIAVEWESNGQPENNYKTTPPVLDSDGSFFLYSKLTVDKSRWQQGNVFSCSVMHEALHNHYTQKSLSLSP
light: B1 light
notes: Anti-latent myostatin antibody; Parent of the Fc variants; copies: 2 + 2
B8: M103205H795-MY201/M103202L889-SK1 (antibody, human IgG1, kappa)
heavy: B2 heavy with E270D, A332K, M398P
light: B1 light
notes: Fc variant G236N/H268D/A330K (EU numbering) of SG1; also called MS1032LO06-MY201; copies: 2 + 2
B9: M103205H795-MY260/M103202L889-SK1 (antibody, human IgG1, kappa)
heavy: B2 heavy with N238M, E270D, A332K, M398P
light: B1 light
notes: copies: 2 + 2
B10: M103205H795-MY261/M103202L889-SK1 (antibody, human IgG1, kappa)
heavy: B2 heavy with N238H, E270D, A332K, M398P
light: B1 light
notes: copies: 2 + 2
B11: M103205H795-MY262/M103202L889-SK1 (antibody, human IgG1, kappa)
heavy: B2 heavy with N238V, E270D, A332K, M398P
light: B1 light
notes: copies: 2 + 2
B12: M103205H795-MY263/M103202L889-SK1 (antibody, human IgG1, kappa)
heavy: B2 heavy with N238Q, E270D, A332K, M398P
light: B1 light
notes: copies: 2 + 2
B13: M103205H795-MY264/M103202L889-SK1 (antibody, human IgG1, kappa)
heavy: B2 heavy with N238L, E270D, A332K, M398P
light: B1 light
notes: copies: 2 + 2
B14: M103205H795-MY265/M103202L889-SK1 (antibody, human IgG1, kappa)
heavy: B2 heavy with N238T, E270D, A332K, M398P
light: B1 light
notes: copies: 2 + 2

Tests used:
[1] = molecular target: T1, cynomolgus monkey FcγRIIb extracellular …; test: SPR (Biacore), antibody captured on chip, FcgR extracellular domain as analyte, 25 C
Method: (§1) The kinetic analysis of interactions between these antibodies and FcγR was carried out using BIACORE® T200 or BIACORE® 4000 (GE Healthcare). HBS-EP+ (GE Healthcare) was used as the running buffer, and the measurement temperature was set to 25° C. A chip produced by immobilizing Protein A. Protein A/G or mouse anti-human IgG kappa light chain (BD Biosciences) onto a Series S Sensor Chip CM4 or CM5 (GE Healthcare) by the amine-coupling method was used. […] After the measurement, the antibody captured on the chip was washed off by allowing reaction with 10 mM glycine-HCl, pH1.5 and 25 mM NaOH so that the chip was regenerated and used repeatedly. The sensorgrams obtained as measurement results were analyzed by the 1:1 Langmuir binding model using the BIACORE® Evaluation Software to calculate the binding rate constant ka (L/mol/s) and dissociation rate constant kd (l/s), and the dissociation constant KD (mol/L) was calculated from these values. […] Regarding such interactions, KD values were calculated using the following 1:1 binding model described in BIACORE® T100 Software Handbook BR1006-48 Edition AE.
(§2) The resultant variants were expressed using M103202L889-SK1 as light chain and their affinity to human and cynoFcγRs were evaluated (Table 20).

[2] = molecular target: T2, cynomolgus monkey FcγRIIIaS …; test: as above
Method: as §1, §2

[3] = molecular target: T3, cynomolgus monkey FcγRIIa2 …; test: SPR (BIACORE), antibody captured, FcγR as analyte, 25°C
Method: as §1
(§3) The behavior of interacting molecules according to the 1:1 binding model on BIACORE® can be described by Equation 1: Req=C·R max/(KD+C)+RI, wherein, Req is a plot of steady-state binding levels to analyte concentration. C is concentration, RI is bulk refractive index contribution in the sample, and Rmax is analyte binding capacity of the surface. When this equation is rearranged, KD can be expressed as Equation 2: KD=C·Rmax/(Req−RI)−C. KD can be calculated by substituting the values of Rmax, RI, and C into Equation 1 or Equation 2. From the current measurement conditions, RI=0, C=2 μmol/L can be used.

[4] = molecular target: T4, cynomolgus monkey FcγRIIa3 …; test: as above
Method: as §1, §3

[5] = molecular target: T5, cynomolgus monkey FcγRIIb extracellular …; test: as above
Method: as §1, §3

[6] = molecular target: T8, cynomolgus monkey FcγRIIIaS extracellular domain, His-tagged (cynomolgus monkey, UniProt A3RFZ7 21-206 (rhesus entry)); test: as above
T8 construct: also called cyno FcgRIIIaS; cynoFcγRIIIaS; not shown: His-tag added to the C-terminus
Method: as §1, §3

[7] = molecular target: T6, human FcγRIIaH extracellular domain, …; test: as above
Method: as §1, §3

[8] = molecular target: T7, human FcγRIIb extracellular domain, …; test: as above
Method: as §1, §3

Binder	Kd [1]	Kd [2]	Kd [3]	Kd [4]	Kd [5]	Kd [6]	Kd [7]	Kd [8]
B1	1800 nM	360 nM						
B2	460 nM	1500 nM						
B3	1200 nM	4500 nM						
B4	1000 nM	3500 nM						
B5	1200 nM	2900 nM						
B6	980 nM	3500 nM						
B7			5100 nM	17000 nM	1800 nM	360 nM	690 nM	4600 nM
B8			1400 nM	3900 nM	430 nM	5700 nM	910 nM	1100 nM
B9			3700 nM	14000 nM	1600 nM	650 nM	910 nM	6100 nM
B10			4000 nM	6500 nM	1500 nM	74 nM	240 nM	5300 nM
B11			1700 nM	8000 nM	560 nM	2800 nM	140 nM	6000 nM
B12			3000 nM	7300 nM	1000 nM	780 nM	320 nM	3500 nM
B13			5500 nM	16000 nM	2800 nM	3700 nM	1500 nM	12000 nM
B14			1900 nM	4800 nM	590 nM	2000 nM	210 nM	2200 nM
